From article PMC12093266, “Synergistic action of two radical SAM enzymes in the biosynthesis of thuricin CD, a two-component sactibiotic†” (Chemical Science, 2025)

B1: TrnD (enzyme)
chain: MKKYFRLYPYCHLEIGETNSCLYDISSGKMIRVNRENAELLRQCQENVPIESINMDLGILDELIKMNLGTYYANPQFIEPFFETNDTKNRIFGKNNILRQMFILTSTDCNMNCKHCNTDSTVFRKTGCKIWPKSINLNALTQSHWRKILEAFYNLHGEELTFIGGEPFLEFDFIKNIVEIAQEVGISKFSIFTNGSIINDTILNFLMENKIKVYIQIFEVDENKFKAFTNSDIPSIQIIDNIKKLNNHHLDLQLRILITRDNDNNLKKIVNTLQKETNVKDIKIEFLYPKPDNSYYSKKYIPLMYDKKREFSHVNVQKMQFLHQYNPSFFGQITIRRDGKVVPHPMLLTRVIGDLQQDDLFTIINTEEYQEYSTLNKEKISKCSTCAYKYNCMDDRVIENFATGDLYGMEYCNF
modifications: fluorescently labeled (in the MST of Fig. 5D only)
B2: equimolar mixture of TrnD and TrnB (complex)
chain 1: B1 chain
chain 2: MEVLNKQNVNIIPESEEVGGWVACVGACGTVCLASGGVGTEFAAASYFL

Target: T1, TrnC (Bacillus thuringiensis, fluorescently labeled with RED-NHS (in the MST experiments where TrnC is the labelled partner))
T1 construct: TrnC, radical SAM (rSAM/SPASM) sactisynthase encoded in the thuricin CD biosynthetic gene cluster of Bacillus thuringiensis; Likely holds three [4Fe-4S] clusters after reconstitution; also called 6× His-tagged TrnC; wild type TrnC; source: E. coli, purified to near homogeneity and reconstituted under anaerobic conditions; also E. coli lysate, coexpressed with non-tagged TrnD from a …
Assay: MST; TrnC fluorescently labeled with RED-NHS; series of diluted TrnD (or TrnD(ΔRRE), or an equimolar mixture of TrnD with TrnA or TrnB) mixed with it in capillaries; Monolith instrument; aerobic conditions
Settings: both partners purified

| Binder | Kd [nM] |
| --- | --- |
| B1 | 2390 ± 460 |
| B2 | 620 ± 160 |
